Publication PMC10164584, “Structural basis for the tRNA-dependent activation of the terminal complex of selenocysteine synthesis in humans” (Nucleic Acids Research, 2023)

What was measured:
human SepSecS = biological target: T1, human SepSecS (Homo sapiens, UniProt Q9HD40, V491A); conditions: holo SepSecS without bound tRNA; P-loop site near active site
T1 sequence (Q9HD40 1-501 V491A): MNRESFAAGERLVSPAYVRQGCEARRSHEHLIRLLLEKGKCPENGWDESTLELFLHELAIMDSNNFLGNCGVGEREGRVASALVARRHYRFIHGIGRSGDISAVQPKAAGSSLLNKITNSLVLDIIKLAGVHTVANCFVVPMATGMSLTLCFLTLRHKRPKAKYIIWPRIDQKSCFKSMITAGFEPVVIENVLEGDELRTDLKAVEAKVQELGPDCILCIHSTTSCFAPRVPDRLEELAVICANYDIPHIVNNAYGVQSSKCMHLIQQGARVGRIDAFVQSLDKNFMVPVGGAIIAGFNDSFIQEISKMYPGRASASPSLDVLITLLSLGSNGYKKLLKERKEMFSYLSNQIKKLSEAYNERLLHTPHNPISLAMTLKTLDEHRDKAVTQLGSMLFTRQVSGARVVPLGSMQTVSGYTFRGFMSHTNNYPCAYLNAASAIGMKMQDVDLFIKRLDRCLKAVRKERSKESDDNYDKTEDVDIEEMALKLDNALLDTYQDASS

SepSecS H30A (human) = assay: MST; conditions: MST: 20 mM HEPES pH 8.0, 150 mM NaCl, 5% glycerol, 0.05% Tween-20, 0.4 mg/ml BSA, room temperature, 5 nM labeled SepSecS; van't Hoff series 24-34 C
SepSecS R398A (human) = assay: MST; conditions: MST: 20 mM HEPES pH 8.0, 150 mM NaCl, 5% glycerol, 0.05% Tween-20, 0.4 mg/ml BSA, room temperature, 5 nM labeled SepSecS; van't Hoff series 24-34 C
SepSecS S27A (human) = assay: MST; conditions: MST: 20 mM HEPES pH 8.0, 150 mM NaCl, 5% glycerol, 0.05% Tween-20, 0.4 mg/ml BSA, room temperature, 5 nM labeled SepSecS; van't Hoff series 24-34 C
SepSecS R33A (human) = assay: MST; conditions: MST: 20 mM HEPES pH 8.0, 150 mM NaCl, 5% glycerol, 0.05% Tween-20, 0.4 mg/ml BSA, room temperature, 5 nM labeled SepSecS; van't Hoff series 24-34 C
SepSecS T397V (human) = assay: MST; conditions: MST: 20 mM HEPES pH 8.0, 150 mM NaCl, 5% glycerol, 0.05% Tween-20, 0.4 mg/ml BSA, room temperature, 5 nM labeled SepSecS; van't Hoff series 24-34 C
SepSecS WT (human) = assay: MST; conditions: MST: 20 mM HEPES pH 8.0, 150 mM NaCl, 5% glycerol, 0.05% Tween-20, 0.4 mg/ml BSA, room temperature, 5 nM labeled SepSecS; van't Hoff series 24-34 C
SepSecS K38M (human) = assay: MST; conditions: MST: 20 mM HEPES pH 8.0, 150 mM NaCl, 5% glycerol, 0.05% Tween-20, 0.4 mg/ml BSA, room temperature, 5 nM labeled SepSecS; van't Hoff series 24-34 C
SepSecS R26A (human) = assay: MST; conditions: MST: 20 mM HEPES pH 8.0, 150 mM NaCl, 5% glycerol, 0.05% Tween-20, 0.4 mg/ml BSA, room temperature, 5 nM labeled SepSecS; van't Hoff series 24-34 C
SepSecS S393A (human) = assay: MST; conditions: MST: 20 mM HEPES pH 8.0, 150 mM NaCl, 5% glycerol, 0.05% Tween-20, 0.4 mg/ml BSA, room temperature, 5 nM labeled SepSecS; van't Hoff series 24-34 C
SepSecS F396V (human) = assay: MST; conditions: MST: 20 mM HEPES pH 8.0, 150 mM NaCl, 5% glycerol, 0.05% Tween-20, 0.4 mg/ml BSA, room temperature, 5 nM labeled SepSecS; van't Hoff series 24-34 C
SepSecS E37L (human) = assay: MST; conditions: MST: 20 mM HEPES pH 8.0, 150 mM NaCl, 5% glycerol, 0.05% Tween-20, 0.4 mg/ml BSA, room temperature, 5 nM labeled SepSecS; van't Hoff series 24-34 C
Q399A SepSecS (human) = assay: MST; conditions: MST: 20 mM HEPES pH 8.0, 150 mM NaCl, 5% glycerol, 0.05% Tween-20, 0.4 mg/ml BSA, room temperature, 5 nM labeled SepSecS; van't Hoff series 24-34 C

Compound	X-ray crystallography, 2.25 A (human SepSecS)	Kd (SepSecS H30A (human)) [nM]	Kd (SepSecS R398A (human)) [nM]	Kd (SepSecS S27A (human)) [nM]	Kd (SepSecS R33A (human)) [nM]	Kd (SepSecS T397V (human)) [nM]	Kd (SepSecS WT (human)) [nM]	Kd (SepSecS K38M (human)) [nM]	Kd (SepSecS R26A (human)) [nM]	Kd (SepSecS S393A (human)) [nM]	Kd (SepSecS F396V (human)) [nM]	Kd (SepSecS E37L (human)) [nM]	Kd (Q399A SepSecS (human)) [nM]
O=P(O)(O)O [phosphate ion]	structure of holo SepSecS possessed a phosphate ion bound to the P-loop	–	–	–	–	–	–	–	–	–	–	–	–
tRNASec WT (unacylated)	–	166	2530	133	28.9	62.8	134	1670	516	197	44.1	166	567
